B1: Dihydrofolate reductase, Q5KZ26 (parent)
chain: MISHIVAMDENRVIGKDNRLPWHLPADLAYFKRVTMGHAIVMGRKTFEAIGRPLPGRDNVVVTRNRSFRPEGCLVLHSLEEVKQWIASRADEVFIIGGAELFRATMPIVDRLYVTKIFASFPGDTFYPPISDDEWEIVSYTPGGKDEKNPYEHAFIIYERKKAK

Variants of: B1
Details: Geobacillus kaustophilus (strain HTA426); pH 7; Thermal; CD; Potassium Phosphate Buffer 10 mM; structure 1ZDR; whole UniProt chain shown

Row | Variant | Tm | change of melting temperature, mutant - wild type (higher = more stable)
1 | L20M | 61.4 °C | -4.8 °C
2 | L20M A104Q | 61.1 °C | -5.1 °C
3 | P122E | 65.3 °C | -0.9 °C
4 | P122E P129D | 65 °C | -1.2 °C
5 | P129D | 64.6 °C | -1.6 °C

Source: FireProtDB (doi:10.1021/bi500238q)
